# Assay results taken from publication doi:10.1101/2020.05.08.079574.
# Ends that are not written are not given here.
# Legend:
# [1] = target: HAdV-5 virion (E1/E3-deleted, replication-defective HAdV-5 vector with eGFP cassette) (human adenovirus 5 (HAdV-5)) (UniProt P04133); test: co-sedimentation
# [2] = target: HAdV-64 virion (E3 deleted, replication-competent HAdV-64 virus with CMV-eGFP ORF, WT HAdV-64 capsid) (human adenovirus 64 (HAdV-64)); test: co-sedimentation
binder,measurement,setting,value
ATCYCRTGRCATRESLSGVCEISGRLYRLCCR (disulfide (positions not given here); also: oxidatively folded) [Human defensin 5],stoichiometry N (molecules of HD5 per virion),[1],7090
same,fold less HD5 bound per virion than to HAdV-5 at 20 µM HD5,[2],83 fold
